From patent US20180055923A1 (WASHINGTON UNIVERSITY, published 2018)

T1: human fibrinogen free from plasminogen and von Willebrand factor (Enzyme Research Laboratory) (human, UniProt P02671 20-629; P02675 31-491; P02679 27-437)
T1 construct: It was bought as purified protein and coated on plates; also called Fg; immobilized human fibrinogen
T1 sequence 1: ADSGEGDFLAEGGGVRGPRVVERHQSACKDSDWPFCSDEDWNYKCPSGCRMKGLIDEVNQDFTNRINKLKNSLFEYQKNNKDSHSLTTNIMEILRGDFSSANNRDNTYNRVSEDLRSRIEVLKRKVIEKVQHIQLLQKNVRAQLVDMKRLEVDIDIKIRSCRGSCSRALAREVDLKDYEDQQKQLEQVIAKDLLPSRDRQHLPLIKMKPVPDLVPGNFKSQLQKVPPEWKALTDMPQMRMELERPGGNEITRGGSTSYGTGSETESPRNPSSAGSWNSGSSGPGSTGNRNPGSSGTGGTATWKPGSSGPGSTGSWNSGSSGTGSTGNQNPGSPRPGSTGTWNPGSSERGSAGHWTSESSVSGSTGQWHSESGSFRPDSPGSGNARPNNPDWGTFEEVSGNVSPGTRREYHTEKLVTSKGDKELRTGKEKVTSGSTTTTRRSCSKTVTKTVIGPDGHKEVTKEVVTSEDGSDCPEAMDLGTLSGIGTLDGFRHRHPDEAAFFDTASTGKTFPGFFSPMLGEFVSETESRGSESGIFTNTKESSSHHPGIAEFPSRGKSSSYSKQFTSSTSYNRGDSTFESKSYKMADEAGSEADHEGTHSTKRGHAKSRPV
T1 sequence 2: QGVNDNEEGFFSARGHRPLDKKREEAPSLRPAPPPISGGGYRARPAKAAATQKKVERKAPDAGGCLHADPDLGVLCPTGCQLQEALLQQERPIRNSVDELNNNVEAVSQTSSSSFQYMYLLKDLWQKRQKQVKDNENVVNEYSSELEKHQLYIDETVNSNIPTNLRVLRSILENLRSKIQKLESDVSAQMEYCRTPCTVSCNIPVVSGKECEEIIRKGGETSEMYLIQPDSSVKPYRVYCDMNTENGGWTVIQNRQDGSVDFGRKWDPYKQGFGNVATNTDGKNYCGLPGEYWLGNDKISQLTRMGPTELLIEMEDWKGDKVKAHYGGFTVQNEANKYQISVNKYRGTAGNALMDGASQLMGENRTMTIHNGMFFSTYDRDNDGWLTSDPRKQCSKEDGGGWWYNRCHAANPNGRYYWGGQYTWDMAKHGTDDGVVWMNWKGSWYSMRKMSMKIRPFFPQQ
T1 sequence 3: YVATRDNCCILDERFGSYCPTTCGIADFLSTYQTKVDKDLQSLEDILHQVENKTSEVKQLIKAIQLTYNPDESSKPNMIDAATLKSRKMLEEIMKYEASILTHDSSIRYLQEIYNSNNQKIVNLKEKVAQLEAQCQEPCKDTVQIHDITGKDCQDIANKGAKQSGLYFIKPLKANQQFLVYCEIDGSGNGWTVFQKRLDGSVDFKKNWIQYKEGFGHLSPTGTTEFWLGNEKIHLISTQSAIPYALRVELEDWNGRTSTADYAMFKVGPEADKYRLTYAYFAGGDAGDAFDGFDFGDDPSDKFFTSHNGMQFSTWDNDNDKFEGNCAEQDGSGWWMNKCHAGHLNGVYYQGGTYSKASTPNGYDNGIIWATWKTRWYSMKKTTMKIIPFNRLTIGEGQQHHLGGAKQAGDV

B1: 6xHis-EbpA^NTD (N-terminal domain of EbpA, residues 115 to 577) (other)
chain: PEKITVPENTKETNKNDSAPEKTEQPTATEEVTNPFAEARMAPATLRANLALPLIAPQYTTDNSGTYPTANWQPTGNQNVLNHQGNKDGSAQWDGQTSWNGDPTNRTNSYIEYGGTGDQADYAIRKYARETTTPGLFDVYLNVRGNVQKEITPLDLVLVVDWSGSMNENNRIGEVQKGVNRFVDTLADSGITNNINMGYVGYSSDGYNNNAIQMGPFDTVKNPIKNITPSSTRGGTFTQKALRDAGDMLATPNGHKKVIVLLTDGVPTFSYKVSRVQTEADGRFYGTQFTNRQDQPGSTSYISGSYNAPDQNNINKRINSTFIATIGEAMALKQRGIEIHGLGIQLQSDPRANLSKQQVEDKMREMVSADENGDLYYESADYAPDISDYLAKKAVQISGTVVNGKVVDPIAEPFKYEPNTLSMKSVGPVQVQTLPEVSLTGATINSNEIYLGKGQEIQIHYQV
notes: not shown: N-terminal 6xHis tag from vector pQE-30Xa
B2: 6xHis-EbpA^CTD (C-terminal domain of EbpA, residues 594 to 1077) (other)
chain: MNGRTTQPLATAPEKVDFGVPSGKAPGVKLNVKKIWEEYDQDPTSRPDNVIYEISRKQVTDTANWQTGYIKLSKPENDTSNSWERKNVTQLSKTADESYQEVLGLPQYNNQGQAFNYQTTRELAVPGYSQEKIDDTTWKNTKQFKPLDLKVIKNSSSGEKNLVGAVFELSGKNVQTTLVDNKDGSYSLPKDVRLQKGERYTLTEVKAPAGHELGKKTTWQIEVSEQGKVSIDGQEVTTTNQVIPLEIENKFSSLPIRIRKYTMQNGKQVNLAEATFALQRKNAQGSYQTVATQKTDTTGLSYFKISEPGEYRMVEQSGPLGYDTLAGNYEFTVDKYGKIHYAGKNIEENAPEWTLTHQNNLKPFDLTVHKKADNQTPLKGAKFRLTGPDTDIELPKDGKETDTFVFENLKPGKYVLTETFTPEGYQGLKEPIELIIREDGSVTIDGEKVADVLISGEKNNQITLDVTNQAKVPLPETGGIGRLW
notes: Plasmid pSJH-541; not shown: N-terminal 6xHis tag from vector pQE-30Xa

Target: T1, human fibrinogen free from plasminogen …
Assay: ELISA, purified protein on immobilized human fibrinogen, detected with mouse anti-EbpA^Full

Row | Binder | binding result
1 | B1 | binds
2 | B2 | no binding
